Entries after “also recorded” stand apart in the source; their conditions may differ.

Data on 4 molecules can be found in patent US6462177B1, “Mammalian blood loss-induced gene, kd312” (Amgen Inc., priority 1998, dated 2002).

Experiment [1] relates to 293 cells. As to the kind of experiment: Establishment of 293 cell lines constitutively expressing genes from pCEP4. It is filed as cell-based, human. The settings on record: no stable cell line could be established. On the procedure:
(§1) Transfections of 293 cells with the plasmid pCEP4 or its derivatives were performed by using LipofectAMINE Reagent and the protocol supplied with it by Gibco BRL. Transfected cells were grown in Gibco BRL D-MEM high-glucose medium that lacked sodium pyruvate and was supplemented with 10% FBS and 300 μg/ml hygromycin. Fluorescence-activated cell sorting (FACS) for apoptosis assays was performed according to Polverino and Patterson, J. Biol. Chem. 272, No. 11: 7013-7021 (1997).
(§2) Involvement of kd312 in apoptosis was tested in the human embryonal kidney cell line 293 following expression of this gene from the episomal expression vector pCEP4. Derivatives of 293 cells constitutively expressing human kd312, bcl-2, R-ras, and murine H-ras genes from pCEP4 were established. Expression of each gene was confirmed by Western blotting experiments (data not shown). […] It has been shown that R-ras promotes apoptosis following expression in 32, D3, FL5.12, and NIH3T3 cells. […] The levels of inhibition following expression of the ras genes, particularly R-ras, were unmistakably lower than those resulting from the expression of kd312.

Experiment [2] deals with human embryonal kidney cell line 293. Nature of the experiment: FACS analysis of geranylgeraniol-induced apoptosis in 293 cells transfected with various genes. The settings on record: 293 cells constitutively expressing the gene from pCEP4; 10 μM geranylgeraniol; propidium iodide FACS. It is filed as cell-based. On the procedure: FIG. 4 depicts inhibition of apoptosis by human kd312 as compared to other proteins (as indicated). Shown graphs are the results from FACS analysis of apoptosis induced by geranylgeraniol in 293 cells transfected with various genes. Cells were treated with 10 μM geranylgeraniol for various times as indicated. Subsequently, the cells were washed and stained with 50 μg/ml propidium iodide in 3.8 mM sodium citrate pH 7.0 and analyzed using a FACScan flow cytometer. The extent of apoptosis was determined by measuring the proportion of cells displaying hypo-diploid DNA content. The data represent the average of 2 independent experiments.
as §1, §2

Experiment [3] addresses T1, human Raf (Homo sapiens, UniProt P04049).
T1 construct: expressed in transfected cells
As to the kind of experiment: Yeast two-hybrid interaction test. The class given is binding. The settings on record: yeast two-hybrid system. The source says: (§3) To define the way that kd312 exerts its function we have tested its interaction with human Raf, H-Ras, and bcl-2 using a yeast two-hybrid system. […] Work is in progress to search for kd312 interacting proteins using the same yeast system.

Experiment [4] has as its target T2, bcl-2 (Homo sapiens, UniProt P10415).
T2 construct: expressed in transfected cells
Nature of the experiment: Yeast two-hybrid interaction test. The following applies: yeast two-hybrid system. The class given is binding.
From the text: as §3

Experiment [5] concerns the target T3, H-Ras (Homo sapiens, UniProt P01112).
T3 construct: expressed in transfected cells
As to the kind of experiment: Yeast two-hybrid interaction test. The class given is binding. The following applies: yeast two-hybrid system.
From the text: as §3

T2 sequence (P10415 whole entry): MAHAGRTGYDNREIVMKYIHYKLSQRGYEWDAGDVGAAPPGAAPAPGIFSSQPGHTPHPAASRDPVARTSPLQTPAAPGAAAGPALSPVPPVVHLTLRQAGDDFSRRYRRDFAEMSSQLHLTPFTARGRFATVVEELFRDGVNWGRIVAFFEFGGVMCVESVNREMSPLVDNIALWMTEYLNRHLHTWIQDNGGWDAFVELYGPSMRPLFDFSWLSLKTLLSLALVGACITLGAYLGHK

As to “bax: murine bax gene product; expression in 293 cells led to cell death”, the “outcome of gene expression in 293 cells” value in experiment [1] is “invariably led to cell death”.

On to “bcl-2: bcl-2 gene product, a potent apoptosis inhibitor, expressed from pCEP4 in 293 cells [reference compound]”, for which, in experiment [2], the “effect on geranylgeraniol-induced apoptosis (proportion of cells with hypo-diploid DNA content)” value (“effect” for short) is on record as “protected 293 cells from geranylgeraniol-induced apoptosis”.

B1: R-ras: human R-ras gene product of the Ras family, expressed from pCEP4 in 293 cells (protein, UniProt P10301 1-215, looked up)
Ras-related protein R-Ras: MSSGAASGTGRGRPRGGGPGPGDPPPSETHKLVVVGGGGVGKSALTIQFIQSYFVSDYDPTIEDSYTKICSVDGIPARLDILDTAGQEEFGAMREQYMRAGHGFLLVFAINDRQSFNEVGKLFTQILRVKDRDDFPVVLVGNKADLESQRQVPRSEASAFGASHHVAYFEASAKLRLNVDEAFEQLVRAVRKYQEQELPPSPPSAPRKKGGGCPC
As for B1, the “effect” value in experiment [2] was “inhibited apoptosis”.

B2: kd312: human kd312 protein (281 amino acids), blood loss-induced, distantly related to the Ras family, expressed from cDNA (protein)
chain: MKLAAMIKKMCPSDSELSIPAKNCYRMVILGSSKVGKTAIVSRFLTGRFEDAYTPTIEDFHRKFYSIRGEVYQLDILDTSGNHPFPAMRRLSILTGDVFILVFSLDNRDSFEEVQRLRQQILDTKSCLKNKTKENVDVPLVICGNKGDRDFYREVDQREIEQLVGDDPQRCAYFEISAKKNSSLDQMFRALFAMAKLPSEMSPDLHRKVSVQYCDVLHKKALRNKKLLRAGSGGGGGDPGDAFGIVAPFARRPSVHSDLMYIREKASAGSQAKDKERCVIS
For the molecule B2, the “interaction with human Raf” value in experiment [3] is on record as “No interaction”. In experiment [4], the “interaction with bcl-2” value is “No interaction”. For the same molecule, the “interaction with H-Ras” value in experiment [5] is recorded as “No interaction”. Besides, in experiment [2], the “effect” value is on record as “protects the cells from apoptosis; also recorded: protected 293 cells from geranylgeraniol-induced apoptosis; also recorded: protects 293 cells from chemical-induced apoptosis”.
